Measured values published in IntAct's records for PubMed 22328087.

B1: Membrane protein MLC1 (Homo sapiens), Q15049 (parent)
chain: MTQEPFREELAYDRMPTLERGRQDPASYAPDAKPSDLQLSKRLPPCFSHKTWVFSVLMGSCLLVTSGFSLYLGNVFPAEMDYLRCAAGSCIPSAIVSFTVSRRNANVIPNFQILFVSTFAVTTTCLIWFGCKLVLNPSAININFNLILLLLLELLMAATVIIAARSSEEDCKKKKGSMSDSANILDEVPFPARVLKSYSVVEVIAGISAVLGGIIALNVDDSVSGPHLSVTFFWILVACFPSAIASHVAAECPSKCLVEVLIAISSLTSPLLFTASGYLSFSIMRIVEMFKDYPPAIKPSYDVLLLLLLLVLLLQAGLNTGTAIQCVRFKVSARLQGASWDTQNGPQERLAGEVARSPLKEFDKEKAWRAVVVQMAQ

Variants of: B1
Conditions: with at1b1_human ATP1B1, P05026

effect of a mutation on the interaction | Variant
disrupting interaction | MTQEPFREELAYDRMPTLERGRQDPASYAPDAKPSDLQLSKRLPPCFSHKTWVFSVLMGSCLLVTSGFSLYLGNVFPAEMDYLRCAAGSCIPSAIVSFTVSRRNANVIPNFQILFVSTFAVTTTCLIWFGCKLVLNPSAININFNLILLLLLELLMAATVIIAARSSEEDCKKKKGSMSDSANILDEVPFPARVLKSYSVVEVIAGISAVLGGIIALNVDDSVSGPHLSVTFFWILVACFPSAIASHVAAECPSKCLVEVLIAISSLTSPLLFTASGYLLFSIMRIVEMFKDYPPAIKPSYDVLLLLLLLVLLLQAGLNTGTAIQCVRFKVSARLQGASWDTQNGPQERLAGEVARSPLKEFDKEKAWRAVVVQMAQ [S280L]
disrupting interaction | MTQEPFREELAYDRMPTLERGRQDPASYAPDAKPSDLQLSKRLPPCFSHKTWVFSVLMGSCLLVTSGFSLYLGNVFPAEMDYLRCAAGSCIPSAIVSFTVSRRNANVIPNFQILFVSTFAVTTTRLIWFGCKLVLNPSAININFNLILLLLLELLMAATVIIAARSSEEDCKKKKGSMSDSANILDEVPFPARVLKSYSVVEVIAGISAVLGGIIALNVDDSVSGPHLSVTFFWILVACFPSAIASHVAAECPSKCLVEVLIAISSLTSPLLFTASGYLSFSIMRIVEMFKDYPPAIKPSYDVLLLLLLLVLLLQAGLNTGTAIQCVRFKVSARLQGASWDTQNGPQERLAGEVARSPLKEFDKEKAWRAVVVQMAQ [C125R]

Variants of: B1
Conditions: with at1b1_human ATP1B1, P05026
Remark: another data set of the same source

effect of a mutation on the interaction | Variant
decreasing interaction | MTQEPFREELAYDRMPTLERGRQDPASYAPDAKPSDLQLSKRLPPCFSHKTWVFSVLMGSCLLVTSGFSLYLGNVFPAEMDYLRCAAGSCIPSAIVSFTVSRRNANVIPNFQILFVSTFAVTTTCLIWFGCKLVLNPSAININFNLILLLLLELLMAATVIIAARSSEEDCKKKKGSMSDSANILDEVPFPARVLKSYSVVEVIAGISAVLGGIIALNVDDSVSGPHLSVTFFWILVACFPSAIASHVAAECPSKCLVEVLIAISSLTSPLLFTASGYLLFSIMRIVEMFKDYPPAIKPSYDVLLLLLLLVLLLQAGLNTGTAIQCVRFKVSARLQGASWDTQNGPQERLAGEVARSPLKEFDKEKAWRAVVVQMAQ [S280L]
decreasing interaction | MTQEPFREELAYDRMPTLERGRQDPASYAPDAKPSDLQLSKRLPPCFSHKTWVFSVLMGSCLLVTSGFSLYLGNVFPAEMDYLRCAAGSCIPSAIVSFTVSRRNANVIPNFQILFVSTFAVTTTCLIWFGCKLVLNPSAININFNLILLLLLELLMAATVIIAARSSEEDCKKKKGSMSDSANILDEVPFPARVLKSYSVVEVIAGISAVLGGIIALNVDDSVSGPHLSVTFFWILVACFPSAIARHVAAECPSKCLVEVLIAISSLTSPLLFTASGYLSFSIMRIVEMFKDYPPAIKPSYDVLLLLLLLVLLLQAGLNTGTAIQCVRFKVSARLQGASWDTQNGPQERLAGEVARSPLKEFDKEKAWRAVVVQMAQ [S246R]
